Measurements published in publication PMC12376620, “A Novel OsMPK6‐OsMADS47‐PPKL1/3 Module Controls Grain Shape and Yield in Rice”.

Biological target: MBP-OsMADS47 (Oryza sativa (cv. Nipponbare, NIP?), UniProt Q5K4R0 1-250)
Assay: EMSA; EMSA buffer not stated (performed as described previously, ref 61); unlabeled competitors at 10x, 100x, 1000x
Conditions: protein: recombinant; tags: MBP (N-terminal, pMAL); chain copies: 2; label: biotin 3'-end; blunt

Chain of MBP-OsMADS47 (Q5K4R0 whole entry): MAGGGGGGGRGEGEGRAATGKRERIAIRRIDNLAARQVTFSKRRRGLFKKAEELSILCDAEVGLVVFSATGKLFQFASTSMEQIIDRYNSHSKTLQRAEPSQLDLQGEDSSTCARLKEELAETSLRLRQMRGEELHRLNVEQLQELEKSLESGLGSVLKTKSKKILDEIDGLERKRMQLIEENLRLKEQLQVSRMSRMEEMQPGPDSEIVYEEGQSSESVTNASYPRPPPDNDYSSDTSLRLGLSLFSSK

B1: GS3-P2 (dsDNA)
DNA 1: CTCTCCCTTCCATCATTACTTGCCCAAAAACGGCAATCCCCTCCCCTCCATCTCCATGTG
DNA 2: CACATGGAGATGGAGGGGAGGGGATTGCCGTTTTTGGGCAAGTAATGATGGAAGGGAGAG
- binding result: binds

B2: GS3-P5 (dsDNA)
DNA 1: CTTTTCTAAACGATATTCTTCATGAACCAAAGGAGGGAAGCTCATTCCGAAAATTTTTCC
DNA 2: GGAAAAATTTTCGGAATGAGCTTCCCTCCTTTGGTTCATGAAGAATATCGTTTAGAAAAG
- binding result: binds

B3: GW8-P1 (dsDNA)
DNA 1: CTTATAGTCCAACAATTTGAGAGCAATTAATGGTCAAAAATTAAATGAAAAATAGAAATTC
DNA 2: GAATTTCTATTTTTCATTTAATTTTTGACCATTAATTGCTCTCAAATTGTTGGACTATAAG
- binding result: binds

B4: GW8-P3 (dsDNA)
DNA 1: CTACTTTCCTTATTCCACTAGAAATCATATATACCTTTCTCACTCTACATAATC
DNA 2: GATTATGTAGAGTGAGAAAGGTATATATGATTTCTAGTGGAATAAGGAAAGTAG
- binding result: binds

B5: GS3-P3 (dsDNA)
DNA 1: GCCACCCTCCCTACGACGTAGCCAGATATGGGTGGAGAGGTAAGCGCCGCCGCCGCTGC
DNA 2: GCAGCGGCGGCGGCGCTTACCTCTCCACCCATATCTGGCTACGTCGTAGGGAGGGTGGC
- binding result: binds

B6: GW8-P2 (dsDNA)
DNA 1: GTAACTGACTACCCCCAGTTCCTGCCCTCTTGGGCCTTGGTATTGTTGCTCCAAG
DNA 2: CTTGGAGCAACAATACCAAGGCCCAAGAGGGCAGGAACTGGGGGTAGTCAGTTAC
- binding result: binds

B7: GS3-P4 (dsDNA)
DNA 1: CCACCGTCCCCCCTTCCCCCTCCAACCAGATCTGGGAGGAAGGGAGGGAGGGAGGGGAG
DNA 2: CTCCCCTCCCTCCCTCCCTTCCTCCCAGATCTGGTTGGAGGGGGAAGGGGGGACGGTGG
- binding result: binds

B8: GS3-P1 (dsDNA)
DNA 1: GCTGCACAACCCGCGATGCCGTCGGCCGGATTTGGGAGGTGGAGCGTCGCCGCCCTCC
DNA 2: GGAGGGCGGCGACGCTCCACCTCCCAAATCCGGCCGACGGCATCGCGGGTTGTGCAGC
- binding result: binds
